Among the data in a protein production outcome set (Wang et al. 2014) are protein production values, retold here.
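Note: failed if final PepcDB status was selected cloned or expressed and not failed if soluble or beyond.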

This data set is described as follows: label from the status in PepcDB records.
“MGIHAKLETVQLPLLVSCLFPPLTMPAKDVQICPIAVDTTVFRSRTWDRLKFEIEYGLQRGTTANSYLISADKIALFDPPGESFTDNFVGTLIQRLDLNSLDYVILGHVNANRAHTLKLLLSLAPQATIICSNPAAQNLEKLLADAEVNNPIQVMKGNDHLDLGRGHELTFIPTPSPRYPGQLCTYDPRTEILFTDKLFGAHVCGDQVFDEGWTIYQEDRRYYFDCLLAPAAAQVSAALNKLEAYPAQTYAPSHGPLVRYGLRELTRNYQQWLSEQQAQALNVALIYASAYGNTSTLAQAIARGITKAGVAVTAINAETSNAEEIKEAIGKSAGFIFGSPTLGGHAPTPIQTALGITLANASKTQLCGVFGSFGWSGEAIDMLENKFRDAGFSFGFDTIRVKFKPTDQTLKMCEEAGTDFAQALKKAEKRRQPKSALPESESARTEQALGRLVGSLCVVTAQQGELSSAMLASWVSQATFSPPGLTVAVAKERAIESLLHKNSCFVLNILQEGNHLGLMKHFLKPFAPGGDRFADVATETAENGAPILTESLAYLECRVQQRLECGDHWVLYAVTDRGALLKDGVTAVHHRKSGDHY”: the protein production entry is “failed”.

For the sequence “MGIRVKRRQHQHLLESLVHSTAKQQGDFTKTAELATELLCQNLAVSLVSIWIFSADQGTQSLVAQFGSMALQDTYRPSLLHTVPRYLNELKNYRHIDAGNTLIDPRLTELVDSYFIPRQILSSLDVGIRINGHLEGVLCIERAQVTHHWHDSEIHLACQMADQLALTLATKHAYLEHHHHHH”, the protein production result was “failed”.

As to “MGISNIKQLYSKWKSLQPLKPEDLKRWNDKFKLEFNYNSNHLEGNTLTYGQTKLLLMFGETSGNASLKDYEEMKAHNVGLEMIKQEAQDKERPLTESFIRELNRTILVQDYWKNAKTPDGQDIRMQIKVGEYKSRPNSVLTATGEVFSYASPEETPAFMTSLVDWYNLEADKGILTPVELAALLHYRYIRIHPFEDGNGRIARLLVNFVLHRYGYPMIVIHSEDKSNYLNILHQCDVEAGLTPSDGANATLNDILPFVNYLSSCLIRSLTLAIKAAKGESIEEEGDFDKK”, the protein production result is listed as “not failed”.

“MGITDGVVVDLGGGTTGISILEKGKVIFVADEPTGGTHMTLVLAGSYGIDFETAEDIKTDKKKEKEVFVQITPVLQKMAAIVKKYIKDYKVKDVFLVGGACSFDGSESIFERELGLNIYKLEHHHHHH”: the protein production result is “failed”.

In the case of “MGITITDELLWAILKDELSDAEANALVWQALGYVWDEAQSCWKTDLVAPEWRQDYPEPPDFIASRPATVKLTRSIPAPYKQLLKEELGFAGYSINELVPRKTRRATMTNWLLAYRRSQQD”, the protein production entry is on record as “not failed”.

Take “MGITRKYIANLKDLPTRVQDENDCTSEPFTKPRLCCKMVNKIRNTLVSTETFLQKENITLDTYKRIIRDLVIHLDRVTTKVFVNSLPYNVMDDLGLQECEAFVLKWSEELRKLQSEYRNHLDQISNIERLRRSLNVCLKTREDQIQKVQKEFQWFINILKSLPKSSVCQDGFARIELLNLYRQWKKGQLISMLPIMDFIMKTLLKEKDSILKRKLQPKSA”: the protein production entry was “failed”.

In the case of “MGKALLIVNPSSGKEKGKTYQGKTEEVLKKRYDEVEVRLTEKAGDATEFASWASEQGFDAVIAMGGDGTLNETINGLAIHEKRPDFGFIPLGTVNDLARSVGIPLKPEKAIQALEKAKAIPMDIGRIGDQYFMNVLAIGMIAQAVDQVSVEQKTKFGSVAYFLEGLKAFNRNELLHFKLEYDEEVWEGEAALVVAGLTKSVGGMESWAPDAKIDDGYLHVVVLTKLGLLDAANMIPQLIRGNLKNSDGVVYIKTKKLTIDASGDDLSINVDGDPGPGVPAEIEVLGSHLNILAPKKSSQKRFGPFILKK”, the protein production entry was “failed”.

With “MGKDFKSLVTRCIYVGKMNDNAKKLKIATEELKDLGNNVMKRVKLCEEQQQMKRLDKVQTWLRQADTVIKEAEEYFLMSSSSSSSGLISSSHKMEKKICKKLKEVQEIKSRGMFEVVAESTGGIGGGAGGGLTIKDSDEQTIGLEAVSGLVWRCLTMENTGIIGLYGVEGVGKTTVLTQVNNRLLQQKANGFDFVLWVFVSKNLNLQKIQDTIREKIGFLDRTWTSKSEEEKAAKIFEILSKRRFALFLDDVWEKVDLVKAGVPPPDAQNRSKIVFTTCSEEVCKEMSAQTKIKVEKLAWERAWDLFKKNVGEDTIKSHPDIAKVAQEVAARCDGLPLALVTIGRAMASKKTPQEWRDALYILSNSPPNFSGQIS”, the protein production result is “failed”.

In the case of “MGKDLAECYLGLGSTFRTLGEYRKAEAVLANGVKQFPNHQALRVFYAMVLYNLGRYEQGVELLLKIIAETSDDETIQSYKQAILFYADKLLEHHHHHH”, the protein production result is “failed”.

As to “MGKENSKVVVLDFWASPYAMRTKVALREKGVEFEVQEEDLWNKSELLLKSNPVHKKVPVLIHNNTPISESLIQVQYIDETWTDAASFLPSDPQSRATARFWADYADKTISFEGGRKIWGNKKGEEQEKGKKEFLESLKVLEAELGDKSYFGGETFGYVDITLVPFYSWFYALEKCGDFSVEAECPKIVAWGKRCVERNSVAATLPESEKVYQQVLKLRQIFGVE”, the protein production result is reported as “failed”.

In the case of “MGKGVAFFSGGKDGLYALYLAEEMGIEVPYLLVLKTSIGLSPHWENLDALKTLAKVMEREILTFDMRRGSKALAEFISSLDVDYLIAGDVYLEDHILWVKSLAEEANVKPLEPLWGRNTRKLAEEMLREGFNWAIIAVDKRKLGKEWLGYTFRSIEDLENFLRANPNVDPLGEVGEFHTVVLNSPLFALNFELKVESIEEDERYWWLRFELREVEKWNLNS”, the protein production result is given as “failed”.

“MGKNIPSSLDLYPIIHNYLQEDDEILDIGCGSGKISLELASLGYSVTGIDINSEAIRLAETAARSPGLNQKTGGKAEFKVENASSLSFHDSSFDFAVMQAFLTSVPDPKERSRIIKEVFRVLKPGAYLYLVEFGQNWHLKLYRKRYLHDFPITKEEGSFLARDPETGETEFIAHHFTEKELVFLLTDCRFEIDYFRVKELETRTGNKILGFVIIAQKLLEHHHHHH”: the protein production entry is “not failed”.

With “MGKRRFQKAKETSSVAEASSPTESQATRRRRGRPRKNLENPEDFKKEESEEDEDYEEYEDEEEEDEEAEVVINREKLKKKVRSSSGSMEKEQKMKHEELEEEEKPEMTVKVVVPPPSSRRSRRKSTPVKSW”, the protein production entry is on record as “failed”.

For the sequence “MGKYFFSETEIKNSWDLVLTAFWQRYPNPFSSHVLTEDVLFRKVTSENLLVSRRLFTKTNRLPRWAERIFPGRRSVYIIEDSVVDLSNRSLTTMTWNVNHAKLMRVVERCVFTGEQDRPVWTHITRQAWISSGVFGLSRPIQEFGLARFRSNQLKAMKGMEHAISNLQKASSSCHGESAEKPKNVNPAAKNAQKPQQYI”, the protein production result is recorded as “failed”.

“MGLFAKITTASDPRTARIAGILLMLLAMLAFSFADAAGKTVVAIYSVGQLLVLRALAGLLVLSPLIWRQRKAFLQLERPGLQLARTLIAACEVAVFYLATAYLPLADVITFYLASSLFVSVGAALFLGETIDRPRGIAIVVGFVGVLIALQPSTQTMSWPALIAILASVLFAGLLLLTRFLRQTPDMVLASQQFAGTLLLGLVLAPSGWITPSATDLVWFAISGAVSAVGLLCVNRSLRLAPASVVVPYQYTMIIFAAAFGWLLFGDVPSRATVAGVAIIIAAGLYLGWRERSTSRPPVGG”: the protein production result was “failed”.

“MGLGVACSSSQPPGSTTEANGPAVSSGPSLFLLHTTPADGLVLHDARTDESRTLAAGATAKPARAVSPSGRHLAFSYATADSSHLTLLDLTTQQAHRVHAAAGTSVAYSLAWHPNQERLAVGYYRPTDDGGRGPGGLQVVTPDGTTRDVGCSSVREVLHWLPDGSLAARTDDNLYVVDAGDCATQASLDIRRMHHLRYAPTGQQMAYIYRELEYDRDRGEYVPDSSFVLSGPDGTNPETLFGNERHARHHRWAPETNEVALDVRVEASGHRQVVVYDGSRPTFLVSPDQTTADQVHPRWSPSGNRIAFTLRSDASSQAAVRVKGQTRRLGRVDGAVWGWLDDRSVVVPGPDSVRVKALNGTTRYAHPTPQTLLHVWRRSAS”: the protein production result is given as “failed”.

As for “MGLIYKVADQDWEFERIHKLNYKTFVEEIPQHEETKDRVRIDRFHDENTYLICLDEDKLVGMVALRGKRPFSLDYKISNLDFYLQEHGENVYEIRLLSVEREYRNGRALLGLIRFLHRYLLLNGYELALISATTRELPLYEQMGFKSFHTL”, the protein production result was “failed”.
